# Source: publication PMC5428420, “The trimer interface in the quaternary structure of the bifunctional prokaryotic FAD synthetase from Corynebacterium ammoniagenes” (Scientific Reports, 2017)
# Where two headings read alike, the source gives them in different places.
# B1: WT: wild-type bifunctional FAD synthetase from Corynebacterium ammoniagenes (CaFADS) (protein)
# chain: MDIWYGTAAVPKDLDNSAVTIGVFDGVHRGHQKLINATVEKAREVGAKAIMVTFDPHPVSVFLPRRAPLGITTLAERFALAESFGIDGVLVIDFTRELSGTSPEKYVEFLLEDTLHASHVVVGANFTFGENAAGTADSLRQICQSRLTVDVIDLLDDEGVRISSTTVREFLSEGDVARANWALGRHFYVTGPVVRGAGRGGKELGFPTANQYFHDTVALPADGVYAGWLTILPTEAPVSGNMEPEVAYAAAISVGTNPTFGDEQRSVESFVLDRDADLYGHDVKVEFVDHVRAMEKFDSVEQLLEVMAKDVQKTRTLLAQDVQAHKMAPETYFLQAES
# Key:
# [1] = molecular target: CaFADS FMNAT activity (Corynebacterium ammoniagenes, UniProt Q59263); assay: Steady-state kinetics of the FMNAT activity (FMN → FAD), continuous fluorometric assay; assay type: biochemical; conditions: 25 °C, 20 mM PIPES pH 7.0, 10 mM MgCl2
# Description: The CaFADS FMNAT activity was fluorometrically measured using a continuous assay. […] A Cary Eclipse spectrophotofluorometer with excitation and emission wavelengths of 420 nm and 530 nm, respectively, was used. FAD and FMN fluorescence were individually calibrated using standard solutions and the data were analyzed as previously described.
# [2] = test system: CaFADS RFK activity; conditions: 25 °C
# Description: The CaFADS RFK activity was measured at 25 °C in 500 µl of 20 mM PIPES, 0.8 mM MgCl2, pH 7.0, containing 0.5–45 µM RF and 10–500 µM ATP. Reactions were initiated by addition of ~20 nM of the monomeric enzyme. After 1 min incubation at 25 °C, the reactions were stopped by boiling the mixtures for 5 min. The flavin composition in the supernatant was determined using an Alliance HPLC system (Waters), equipped with a 2707 autosampler and an HSST3 column (4.6 × 150 mm, 3.5 µm, Waters), preceded by a precolumn (4.6 × 20 mm, 3.5 µm, Waters). Flavins (FMN or FAD) produced from RF were quantified using their corresponding standard curves, as previously described[21].
# When an excess of RF inhibited the RFK activity, the experimental data were interpreted through a model describing the substrate inhibition of a bi-substrate mechanism[26]. In these situations, the errors in apparent K m and k cat (^app K m and ^app k cat) increased as the inhibition constant (K i) approached K m ^S. Experiments were performed in triplicate.
# [3] = molecular target: T1, CaFADS:ADP:Mg^2+ complex (Corynebacterium ammoniagenes, UniProt Q59263); conditions: FMN binding to preformed CaFADS:ADP:Mg2+ complex; ITC, 25 °C, pH 7.0, 10 mM MgCl2; ref [16], [21]; read-out: K d FADS:ADP:FMN, RFK site; cited from earlier work
# T1 construct: made in house; host or cells: E. coli BL21(DE3)
# [4] = molecular target: T2, CaFADS (Corynebacterium ammoniagenes, UniProt Q59263); conditions: ITC; in brackets; ref [16], [21]; cited from earlier work
# [5] = molecular target: T2, CaFADS; set-up: made in house; host or cells: E. coli BL21(DE3); conditions: ITC, ref [16], [21], cited from earlier work
# [6] = molecular target: T2, CaFADS; set-up: made in house; host or cells: E. coli BL21(DE3); conditions: ITC, ref [16], [21], cited from earlier work; remark: listed apart in the source
# [7] = molecular target: T2, CaFADS; set-up: made in house; host or cells: E. coli BL21(DE3); conditions: ITC, ref [16], [21], cited from earlier work; remark: listed apart in the source
# [8] = RF concentration giving ~80% of maximal activity, pH 7.0, 0.8 mM MgCl2
molecule,measurement,setting,value
B1,K m ATP FMNAT activity,[1],22.4 ± 2.0 µM
same,K m FMN FMNAT activity,[1],10.1 ± 1.0 µM
same,k cat FMNAT activity,[1],0.0917 ± 0.0083 s⁻¹
same,k cat/K m ATP FMNAT activity,[1],4170 ± 500 M⁻¹ s⁻¹
same,k cat/K m FMN FMNAT activity,[1],9000 ± 1200 M⁻¹ s⁻¹
same,K m ATP RFK activity,[2]; [8],28.2 ± 3.9 µM
same,k cat RFK activity as function of ATP,[2]; [8],2.58 ± 0.083 s⁻¹
same,k cat/K m ATP RFK activity,[2]; [8],91700 ± 13000 M⁻¹ s⁻¹
same,k cat (apparent) RFK activity,"[2]; saturating ATP, apparent constant (RF substrate inhibition), 20 mM PIPES pH 7.0, 0.8 mM MgCl2",6.8 ± 3.83 s⁻¹
same,K m RF (apparent) RFK activity,"[2]; saturating ATP, apparent constant, 20 mM PIPES pH 7.0, 0.8 mM MgCl2",11.7 ± 3.0 µM
same,k cat/K m RF RFK activity,"[2]; saturating ATP, apparent, pH 7.0, 0.8 mM MgCl2",582000 ± 360000 M⁻¹ s⁻¹
same,Kd,[3],0.9 ± 0.1 µM
same,stoichiometry FADS:RF,[4],2
same,Kd,"[5]; 25 °C, pH 7.0, 10 mM MgCl2, read-out: K d FADS:FMN",7.8 µM
same,stoichiometry FADS:FMN,[5]; in brackets,1
same,Kd,"[6]; 25 °C, pH 7.0, 10 mM MgCl2, read-out: K d FADS:FAD",0.74 µM
same,stoichiometry FADS:FAD,[6]; in brackets,1
same,Kd,"[7]; 25 °C, pH 7.0, 10 mM MgCl2, average K d,av of two sites, read-out: K d FADS:ATP",30.2 µM
same,stoichiometry FADS:ATP,[7]; in brackets,2
